Assay results as given in patent US20090117108A1 (published 2009).

Tests used:
[1] = molecular target: T1, purified CEA (carcinoembryonic antigen) (UniProt P06731 35-685, limits assumed); experiment: ELISA, CEA coated at 1 ug/ml, CEA-scTsAb diluted from 10 ug/ml, detected by anti-c-myc antibody
T1 construct: Bought antigen; also called purified CEA (Fitzerald, German); purified CEA(R&D)
T1 sequence (looked up): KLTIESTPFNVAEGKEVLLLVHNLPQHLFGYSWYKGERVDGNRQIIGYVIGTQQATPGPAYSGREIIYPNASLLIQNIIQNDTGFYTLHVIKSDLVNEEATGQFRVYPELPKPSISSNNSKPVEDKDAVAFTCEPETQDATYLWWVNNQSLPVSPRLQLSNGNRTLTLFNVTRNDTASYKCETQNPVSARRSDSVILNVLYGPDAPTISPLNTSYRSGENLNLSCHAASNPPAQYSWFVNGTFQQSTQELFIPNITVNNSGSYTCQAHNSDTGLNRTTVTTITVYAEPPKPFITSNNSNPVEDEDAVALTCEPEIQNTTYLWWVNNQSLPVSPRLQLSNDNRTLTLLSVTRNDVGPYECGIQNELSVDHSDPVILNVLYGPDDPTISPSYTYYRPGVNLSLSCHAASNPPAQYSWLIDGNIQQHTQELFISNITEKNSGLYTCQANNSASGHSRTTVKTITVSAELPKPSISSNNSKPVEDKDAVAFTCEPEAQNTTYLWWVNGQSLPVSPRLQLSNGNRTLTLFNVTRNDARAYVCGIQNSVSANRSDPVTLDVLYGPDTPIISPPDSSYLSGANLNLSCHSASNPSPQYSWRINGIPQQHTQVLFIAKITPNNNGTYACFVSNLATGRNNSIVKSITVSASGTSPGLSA

[2] = molecular target: T2, rhCD28-FC chimera (R&D) (human (printed as 'rh'), UniProt P10747 19-152); experiment: ELISA, rhCD28-FC chimera coated at 1 ug/ml, CEA-scTsAb diluted from 10 ug/ml, detected by anti-c-myc antibody
T2 construct: Bought from R&D; Fc part of the bought chimera not given
T2 sequence (P10747 19-152, change not shown): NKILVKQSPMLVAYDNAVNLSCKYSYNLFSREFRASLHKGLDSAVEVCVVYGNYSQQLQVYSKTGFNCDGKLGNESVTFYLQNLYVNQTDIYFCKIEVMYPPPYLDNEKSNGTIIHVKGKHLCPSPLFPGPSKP

B1: recombinant anti-CEA/CD3/CD28 single-chain tri-specific antibody CEA-scTsAb (other)
chain: MGLEQVQLQQSGAELMKPGASVKISCKATGYTFSDYWIEWVKQRPGHGLEWIGEILPGSGRTDYNERFKGKATFTGDVSSNTAYMKLSSLTSEDSAVYYCATGTTPFGYWGQGTLVTVSATSTPSHNSHQVPSAGGPTANSGSRDIVLTQSPASLAVSLGQRATISCRASQSVSTSSYTYMHWYQQKPGQPPKLLIKYASNLESGVPARFSGSGSGTDFTLNIHPVEEEDTAYYYCQHSWEIPRTFGGGTKLEIKEFNSTYRVVSVLTVLHQDWLNGKEYKCKSTEVKLVESGPELVKPGASMKISCKASGYSFTGYTMNWVKQSHGKNLEWMGLINPYKGVSTYNQKFKDKATLTVDKSSSTAYMELLSLTSEDSAVYYCARSGYYGDSDWYFDVWGAGTSVTVSSTSGGGGSGGGGSGGGGSSRDIQMTQTTSSLSASLGDRVTISCRASQDIRNYLNWYQQKPDGTVKLLIYYTSRLHSGVPSKFSGSGSGTDYSLTISNLEQEDIATYFCQQGNTLPWTFAGGTKLELKRAVDFQNALLVRYTKKVPQVSTPTPVEVSHMQVQLQESGPGLVKPSQTLSLTCTVSGFSLSDYGVHWVRQPPGKGLECLGVIWGGGTNYNSALMSRRVTSSDDTSKNQFSLKLSSVDTAVYYCARSYYYSMDYWGQGTLVTVSSGTEQKLISEEDLNGAAHHHHHHEQ
notes: Single linear tri-specific antibody expressed solubly in the E. coli cytoplasm and purified by DEAE flow-through to about 70-75% purity; also called anti-CEA/CD3/CD28 scTsAb
Question: Does B1 bind [1]?
Answer: Result: binds

Question: Does B1 bind [2]?
Answer: Result: binds
